Assays:
EGFR [1] = molecular target: T1, EGFR (Homo sapiens, UniProt P00533); test: Cell based (affinity) ELISA: binding of hTGFα to EGFR on A431 cells; details: compared to wild type hTGFα
T1 construct: A431 cells, which are known to express high levels of EGFR on their surface; host or cells: A431 cells
Description: Binding activity of hTGFα to EGFR was also confirmed by cell based ELISA and FACS analysis using A431 cells, which are known to express high levels of EGFR on their surface. For the cell-based assay, A431 cells (ATCC#CRL1555) were seeded into the wells of a 96 well plate. A 1000 ng/ml solution of human TGFα (hTGFα) was serially diluted (two-fold dilutions), aliquots of each dilution added to the immobilized cells, and the plates incubated to allow binding. (FIG. 3A) After washing, bound hTGFα was detected using biotinylated anti-hTGFα (R&D Systems #BAF239) and Streptavidin conjugated with HRP. TMB was added to each well, the reactions stopped after four minutes, and the samples read as described above in paragraph a). (FIG. 3B) The standard curve was generated using Softmax. (FIG. 3C)
BAP060-hTGFα-B (mature hTGFα, aa 40-89, with PelB signal sequence) wild type and CPE™ mutants were transformed into E. coli BL21 (DE3) competent cells, and recombinant protein expression induced by addition of 1 mM IPTG at 37° C. for 3 hours in 96 well format (1st confirmation) or in 14 ml tubes (2nd confirmation). After three hours, the cells were collected and periplasmic proteins prepared by incubating the cells in OS buffer (200 mM Tris-HCl, pH 7.5, 20% sucrose, 1 mM EDTA) with DNAse, RNAse and lysozyme. After addition of lysis buffer (10 mM Tris, pH 7.5, 50 mM KCl, 1 mM EDTA and 0.1% of Na-deoxycholate) to the cells in OS buffer, the cells were centrifuged and the supernatants, which contained the periplasmic fractions, were transferred to microcentrifuge tubes. The concentration of hTGFα was determined by quantitation ELISA, and 25 ng/ml of hTGFα were incubated with A431 cells (ATCC#CRL1555) immobilized on the plate. Bound hTGFα was detected with biotinylated anti-hTGFα (R&D Systems, #BAF239) and Streptavidin conjugated with HRP. The reactions were stopped by addition of HCl after TMB was added to the wells and read immediately. OD450 nm value of the reactions was measured with a Molecular Device SPECTRAmax. The initial screen identified 94 CPE™ mutants that had 1.5 fold higher binding activity compared to the wild type TGFα in the primary screening. The sequences of these CPE™ mutants are shown below in Table 2, while select characteristics for all of the CPE™ mutants can be found in FIG. 11A.
A first confirmation was performed by re-transforming E. coli BL21 cells with plasmids containing the 94 CPE™ mutants, collected the periplasmic fractions after IPTG induction and performed quantitation ELISA and cell based ELISA. This first confirmation identified 37 CPE™ mutants having a higher binding activity compared to the wild type TGFα . The second confirmation identified 27 CPE™ putative hits that consistently had higher binding activity compared to the wild type TGFα. These 27 CPE™ mutants were then tested in a cell based EGFR phosphorylation assay to confirm the functional activity of the CPE™ mutants. (FIGS. 11B and 12B)
In addition, 15 CPS™ mutants (containing up to 5 mutations) having an increased ability to induce the phosphorylation of EGFR, relative to the wild type hTGFα (FIG. 14), were selected for cell based titration ELISA to confirm their binding activities (FIG. 15). Briefly, BAP060-hTGFα-B (mature hTGFα, aa 40-89, with PelB signal sequence) wild type and CPS™ mutants were transformed into E. coli BL21 (DE3) competent cells. Protein was expressed upon the addition of 1 mM IPTG at 37° C. for 3 hours in 96 well format. Cells were collected after induction and periplasmic proteins prepared by incubating the cells in OS buffer with DNAse, RNAse and lysozyme. Lysis buffer was added to the cells in OS buffer, the cells centrifuged, and the supernatants containing the periplasmic fractions transferred to a clean set of microcentrifuge tubes. Concentration of hTGFα in each sample was determined by quantitation ELISA. […]

[2] = Physical characteristics of mutants (isoelectric point, hydrophobicity); format: physicochemical; details: compared to wild type hTGFα
EGFR [3] = molecular target: T1, EGFR; test: Cell based EGFR phosphorylation assay in A431 cells; details: compared to wild type hTGFα
Description: A cell based EGFR phosphorylation assay was set up to determine the binding activity of hTGFα to EGFR using a functional assay. A431 cells were seeded in 96 well formats and were serum starved overnight. The cells were washed in serum free media and incubated with 50 ul of 0, 50, 100 or 200 ng/ml of EGF (FIG. 5A, column 1) or hTGFα (FIG. 5A, column 2) in DMEM at 37° C. for 10 min: The cells were then washed with PBS and lysed. Half of the cell lysate were used to determine the level of total EGFR (FIG. 5C) using Cell Signaling kit #7250 and the other half of the cell lysate were used to determined the level of phosphorylated EGFR (FIG. 5B) using Cell Signaling kit #7240 following vendor's protocols.
EGFR phosphorylation. BAP060-hTGFα -B (mature hTGFα, aa 40-89, with PE1B signal sequence) was transformed into E. coli BL21 (DE3) competent cells. […] Half of the cell lysate were used to determine the level of total EGFR using Cell Signaling kit #7250 and the other half of the cell lysate were used to determined the level of phosphorylated EGFR using Cell Signaling kit #7240 following vendor's protocols.
E. coli BL21 cells were transformed with BAP060-hTGFα -B CPS™ mutants and induced with IPTG at 37° C. The periplasmic fractions after IPTG induction were collected and the expression levels of hTGFα determined by quantitation ELISA, as described above. […]

neuronal stem cell = details: ICV or intrastriatal infusion over 18 days, rat brain; cited from earlier work
[4] = test system: central nervous system (CNS); details: peripheral route, animal model of Parkinson's disease; cited from earlier work

| Substance | Mutant Characteristics: affinity (EGFR [1]) | other results |
| --- | --- | --- |
| BAP060-A041D: CPE™ single-substitution mutant of mature hTGFα | Neutral affinity, | Mutant Characteristics: PI (isoelectric point) [2]: lower PI; Mutant Characteristics: hydrophobicity [2]: decreased |
| BAP060-A046Y: CPE™ single-substitution mutant of mature hTGFα | Increased affinity, | – |
| BAP060-A050W: CPE™ single-substitution mutant of mature hTGFα | Increased affinity, | – |
| BAP060-E027L: CPE™ single-substitution mutant of mature hTGFα | Neutral affinity, | – |
| BAP060-F017L: CPE™ single-substitution mutant of mature hTGFα | Increased affinity, | Mutant Characteristics: P-EGFR induction (EGFR [3]): P-EGFR induction, |
| BAP060-Q014G: CPE™ single-substitution mutant of mature hTGFα | Increased affinity, | – |
| BAP060-S036R: CPE™ single-substitution mutant of mature hTGFα | Increased affinity, | – |
| TGF-α: member of the EGF family that binds the EGF receptor | – | neuronal stem cell proliferation (neuronal stem cell): induced neuronal stem cell proliferation; abnormal motor behavior [4]: ameliorates abnormal motor behavior; neurogenesis of the central nervous system [4]: promotes neurogenesis of the central nervous system (CNS) |
